This experiment deals with NT-mini (catalytically competent fragment of human neurotrypsin, Gly497-Leu875) (human).

Ends that are not written are not given here. * marks the point of attachment. pNA = O=[N+]([O-])c1ccc(N*)cc1

As to GLVEK-pNA (also: termed β-peptide, meaning not given here) [β-(5 mer) peptide with a C-terminal p-nitroaniline], the Km of cleavage of the pNa peptide by NT-mini (Michaelis-Menten; 1 µM enzyme, 37 °C, 5 mM CaCl2, GF buffer pH 8) is 17.2 mM.

With KGLVEK-pNA (also: termed β-peptide, meaning not given here) [β-peptide (6-mer, KGLVEK) with a C-terminal p-nitroaniline], the Km of cleavage of the pNa peptide by NT-mini (Michaelis-Menten; 1 µM enzyme, 37 °C, 5 mM CaCl2, GF buffer pH 8) amounted to 6.16 mM.

(Values after PMC9616769.)
